# Results as given in PMC6614449, “Targeting DNAJB9, a novel ER luminal co-chaperone, to rescue ΔF508-CFTR” (Scientific Reports, 2019).
# Molecular target: T1, full length FLAG-CFTR (WT-CFTR) (UniProt P13569 1-1480)
# T1 construct: Cystic Fibrosis transmembrane-conductance regulator (CFTR), wild type, 1,480 amino acids; Surface CFTR was probed with anti-FLAG on fixed cells, so the FLAG tag may lie in an extracellular loop; also called FLAG-WT-CFTR; Cystic Fibrosis transmembrane-conductance regulator; source: HEK293 cells stably expressing it; purified on anti-FLAG resin (ProtoArray) or in whole-cell lysate (co-IP)
# Assay: peptide or protein array; ProtoArray protein microarray (Invitrogen / ThermoFisher) probed with purified full length FLAG-CFTR in solution; bound CFTR detected with mouse anti-FLAG monoclonal antibody and Alexa-488 secondary antibody, fluorescence scanner; mean of duplicate
# Conditions: both partners purified
# T1 sequence (P13569 whole entry): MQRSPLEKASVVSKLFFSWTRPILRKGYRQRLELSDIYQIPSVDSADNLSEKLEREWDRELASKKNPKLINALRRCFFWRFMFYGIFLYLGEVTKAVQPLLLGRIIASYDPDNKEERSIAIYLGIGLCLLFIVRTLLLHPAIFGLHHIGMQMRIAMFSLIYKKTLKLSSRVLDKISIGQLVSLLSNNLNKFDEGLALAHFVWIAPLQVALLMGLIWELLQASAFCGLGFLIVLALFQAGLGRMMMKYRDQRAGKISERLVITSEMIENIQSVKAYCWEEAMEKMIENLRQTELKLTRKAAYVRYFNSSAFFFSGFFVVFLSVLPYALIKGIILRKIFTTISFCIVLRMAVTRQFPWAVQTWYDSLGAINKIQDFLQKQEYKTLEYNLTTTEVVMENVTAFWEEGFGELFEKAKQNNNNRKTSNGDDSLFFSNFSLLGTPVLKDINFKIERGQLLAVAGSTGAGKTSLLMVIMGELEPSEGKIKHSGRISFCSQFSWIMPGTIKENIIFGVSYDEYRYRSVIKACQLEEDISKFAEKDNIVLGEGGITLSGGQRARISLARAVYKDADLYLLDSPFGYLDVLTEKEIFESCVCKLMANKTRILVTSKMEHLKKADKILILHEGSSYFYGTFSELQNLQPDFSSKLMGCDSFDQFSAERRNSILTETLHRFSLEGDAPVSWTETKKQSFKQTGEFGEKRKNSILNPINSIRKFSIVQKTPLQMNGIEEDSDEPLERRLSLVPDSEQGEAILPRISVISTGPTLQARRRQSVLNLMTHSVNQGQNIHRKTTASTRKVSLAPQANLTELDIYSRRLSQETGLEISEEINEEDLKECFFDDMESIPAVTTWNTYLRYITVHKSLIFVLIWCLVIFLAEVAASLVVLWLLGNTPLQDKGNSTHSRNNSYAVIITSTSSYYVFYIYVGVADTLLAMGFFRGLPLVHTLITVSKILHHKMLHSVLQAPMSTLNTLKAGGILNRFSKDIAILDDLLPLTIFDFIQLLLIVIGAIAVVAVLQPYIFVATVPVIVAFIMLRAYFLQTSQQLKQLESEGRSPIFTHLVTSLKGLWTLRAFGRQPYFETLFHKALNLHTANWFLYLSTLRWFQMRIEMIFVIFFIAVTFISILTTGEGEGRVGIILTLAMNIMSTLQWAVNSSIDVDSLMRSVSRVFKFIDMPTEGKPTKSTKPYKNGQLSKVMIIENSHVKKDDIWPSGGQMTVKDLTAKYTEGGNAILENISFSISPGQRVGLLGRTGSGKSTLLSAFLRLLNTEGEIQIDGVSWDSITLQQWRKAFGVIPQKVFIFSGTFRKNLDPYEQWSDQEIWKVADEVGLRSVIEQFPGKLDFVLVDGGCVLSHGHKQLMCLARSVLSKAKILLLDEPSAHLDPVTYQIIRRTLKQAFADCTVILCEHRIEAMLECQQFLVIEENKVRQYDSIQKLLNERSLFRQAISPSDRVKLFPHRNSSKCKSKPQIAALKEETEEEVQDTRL
row,binding result,Binder
1,binds,"DNAJB7 (on the ProtoArray) (natural protein, UniProt Q7Z6W7 1-309, looked up, DNAJB7, protein spotted on the ProtoArray; source: bought: spotted on ProtoArray protein microarray (Invitrogen / ThermoFisher)) MVDYYEVLGLQRYASPEDIKKAYHKVALKWHPDKNPENKEEAERKFKEVAEAYEVLSNDEKRDIYDKYGTEGLNGGGSHFDDECEYGFTFHKPDDVFKEIFHERDPFSFHFFEDSLEDLLNRPGSSYGNRNRDAGYFFSTASEYPIFEKFSSYDTGYTSQGSLGHEGLTSFSSLAFDNSGMDNYISVTTSDKIVNGRNINTKKIIESDQEREAEDNGELTFFLVNSVANEEGFAKECSWRTQSFNNYSPNSHSSKHVSQYTFVDNDEGGISWVTSNRDPPIFSAGVKEGGKRKKKKRKEVQKKSTKRNC"
2,binds,"Na+/H+ Exchange Regulator Factor 1 (on the ProtoArray) (natural protein, UniProt O14745 1-358, looked up, NHERF1 (EBP50), protein spotted on the ProtoArray; also called NHERF1; EBP50; source: bought: spotted on ProtoArray protein microarray (Invitrogen / ThermoFisher)) MSADAAAGAPLPRLCCLEKGPNGYGFHLHGEKGKLGQYIRLVEPGSPAEKAGLLAGDRLVEVNGENVEKETHQQVVSRIRAALNAVRLLVVDPETDEQLQKLGVQVREELLRAQEAPGQAEPPAAAEVQGAGNENEPREADKSHPEQRELRPRLCTMKKGPSGYGFNLHSDKSKPGQFIRSVDPDSPAEASGLRAQDRIVEVNGVCMEGKQHGDVVSAIRAGGDETKLLVVDRETDEFFKKCRVIPSQEHLNGPLPVPFTNGEIQKENSREALAEAALESPRPALVRSASSDTSEELNSQDSPPKQDSTAPSSTSSSDPILDFNISLAMAKERAHQKRSSKRAPQMDWSKKNELFSNL"
3,binds,"DNAJB8 (on the ProtoArray) (natural protein, UniProt Q8NHS0 1-232, looked up, DNAJB8, protein spotted on the ProtoArray; source: bought: spotted on ProtoArray protein microarray (Invitrogen / ThermoFisher)) MANYYEVLGVQASASPEDIKKAYRKLALRWHPDKNPDNKEEAEKKFKLVSEAYEVLSDSKKRSLYDRAGCDSWRAGGGASTPYHSPFDTGYTFRNPEDIFREFFGGLDPFSFEFWDSPFNSDRGGRGHGLRGAFSAGFGEFPAFMEAFSSFNMLGCSGGSHTTFSSTSFGGSSSGSSGFKSVMSSTEMINGHKVTTKRIVENGQERVEVEEDGQLKSVTVNGKEQLKWMDSK"
